In paper PMC9605988, “Juxtaposition of Bub1 and Cdc20 on phosphorylated Mad1 during catalytic mitotic checkpoint complex assembly” (Nature Communications, 2022):
Where two headings read alike, the source gives them in different places. Square brackets hold non-standard residues; d marks the D form. Peptide text beside a SMILES is read from it. * marks the point of attachment. X1 = N=c1ccc2c(-c3ccc(C(=O)NCCCCCN4C(=O)CC(*)C4=O)cc3C(=O)O)c3ccc(N)c(S(=O)(=O)O)c3oc-2c1S(=O)(=O)O; pT = C[C@@H](OP(=O)(O)O)[C@H](N)C(=O)O; pS = N[C@@H](COP(=O)(O)O)C(=O)O

Assays:
Mad1 CTD (Homo sapiens) = Mad1 CTD (Homo sapiens) (UniProt Q9Y6D9); details: cited from earlier work
pMad1CTD:Cdc20N complex = biological target: T1, pMad1CTD:Cdc20N complex (Homo sapiens, UniProt Q12834+Q9Y6D9); experiment: Fluorescence anisotropy: AF488-Bub1CD1 binding to preformed pMad1CTD:Cdc20N complex; details: KD 1.7 vs 0.9 µM for pMad1CTD alone
T1 construct: the C-terminal domain of Mad1 (residue 597–718); made in house; host or cells: Cdc20N: E. coli Rosetta 2 (DE3)
Method: (§1) All reactions were completed in a buffer of 25 mM HEPES pH 7.75, 1 mM TCEP, 100 mM NaCl, 0.05% (v/v) Tween-20. […] Measurements were performed with a PheraStar plate reader FSX plate reader (BMG Labtech) using an optic module for λex = 485 nm, λem = 520 nm. Reactions were carried out in a total volume of 40 μl at 25 °C in a black, flat-bottom, non-binding surface 384-well plate (Corning). All experiments were performed as technical triplicates and data were analysed in PRISM 9.3.1 (GraphPad Software).

[1] = biological target: Mad1^CTD phosphorylated at Thr716 (pMad1^CTD) (UniProt Q9Y6D9); experiment: AUC; sedimentation equilibrium; 20 mM HEPES pH 7.5, 100 mM NaCl, 1 mM TCEP; 20 °C; 10,200, 12,200 and 21,000 rpm; up to four-fold molar excess of Cdc20^N
[2] = biological target: Mad1^CTD phosphorylated at Thr716 (pMad1^CTD) (UniProt Q9Y6D9); experiment: SEC-MALS; Superdex 75 or Superdex 200 Increase 10/300 GL, 0.5 ml/min; about 100 μl at ~3.0 mg/ml; Mad1^CTD dimer to Cdc20^N 1:1.2; proteins also run alone
[3] = biological target: T2, preformed AF488-Bub1^CD1:Mad1^CTD complex (Mad1^CTD unphosphorylated) (UniProt Q9Y6D9 597-718, Aurora Fluor 488 (AF488) on the N-terminal Cys; phosphoserine (pSer459); phosphothreonine (pThr461)); experiment: fluorescence polarisation; fluorescence anisotropy; Cdc20^N twofold series (100 μM to 6 nM, mixed 1:1) titrated into preformed AF488-Bub1^CD1:Mad1^CTD (20 nM: 2.1 µM); 25 mM HEPES pH 7.75, 1 mM TCEP, 100 mM NaCl, 0.05% Tween-20; 25 °C; details: both partners purified
T2 construct: Mad1 C-terminal domain (Mad1^CTD), residues 597-718; as m1; added N-terminal Cys (carries AF488) and Trp; as m7; Bub1 conserved domain 1 (CD1) peptide; also called Mad1^CTD:AF488-Bub1^CD1 complex; source: mixed from purified Mad1^CTD and synthetic peptide (20 nM: 2.1 µM); copies: 2 + 1
T2 sequence 1: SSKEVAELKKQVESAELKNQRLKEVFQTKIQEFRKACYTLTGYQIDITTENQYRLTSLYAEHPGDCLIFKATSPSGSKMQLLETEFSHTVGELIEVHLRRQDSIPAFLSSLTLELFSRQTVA
T2 sequence 2: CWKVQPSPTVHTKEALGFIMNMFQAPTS

[4] = biological target: T3, preformed AF488-Bub1^CD1:pMad1^CTD complex (Mad1^CTD phosphorylated at Thr716) (UniProt Q9Y6D9 597-718, phosphothreonine at 716 (pThr716) | Aurora Fluor 488 (AF488) on the N-terminal Cys; phosphoserine (pSer459); phosphothreonine (pThr461)); experiment: as above; details: both partners purified
T3 construct: Mad1 C-terminal domain (Mad1^CTD), residues 597-718; as m2; added N-terminal Cys (carries AF488) and Trp; as m7; Bub1 conserved domain 1 (CD1) peptide; source: mixed from purified pMad1^CTD and synthetic peptide (20 nM: 2.1 µM); copies: 2 + 1
T3 sequence 1: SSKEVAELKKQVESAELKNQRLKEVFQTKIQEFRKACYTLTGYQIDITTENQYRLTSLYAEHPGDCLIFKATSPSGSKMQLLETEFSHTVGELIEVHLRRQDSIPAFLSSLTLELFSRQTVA
T3 sequence 2: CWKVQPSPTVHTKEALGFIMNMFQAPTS

[5] = biological target: the molecule itself; experiment: SEC-MALS; Superdex 75 or Superdex 200 Increase 10/300 GL, 0.5 ml/min; about 100 μl at ~3.0 mg/ml; Mad1^CTD dimer to Cdc20^N 1:1.2; proteins also run alone
[6] = biological target: T4, Mad2 R133A prepared in the open state for NMR (O-Mad2) (UniProt Q13257 1-205, R133A); experiment: NMR time course (1H,15N HSQC); 100 μM 15N O-Mad2 R133A with 200 μM Cdc20^MIM peptide; 25 °C; Trp75 and Trp167 indole resonances as reporters; details: both partners purified
T4 construct: Mad2; also called O-Mad2 with an R133A mutation; source: 15N-labelled in M9 minimal media
T4 sequence (Q13257 whole entry R133A): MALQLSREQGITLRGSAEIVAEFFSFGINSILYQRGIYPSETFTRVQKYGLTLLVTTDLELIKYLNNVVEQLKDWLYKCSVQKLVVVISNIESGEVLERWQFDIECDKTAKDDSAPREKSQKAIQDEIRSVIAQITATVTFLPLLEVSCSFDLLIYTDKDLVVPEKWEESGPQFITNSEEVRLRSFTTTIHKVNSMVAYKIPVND

[7] = tested on: AF488-Bub1CD1:pMad1CTD complex; experiment: Fluorescence anisotropy: Cdc20N titrated into preformed AF488-Bub1CD1:pMad1CTD complex; assay type: binding, human; details: at the concentrations used in the assay
pMad1CTD (Mad1CTD pT716) = experiment: SEC-MALS, Cdc20N with pMad1CTD; assay type: binding, human; details: 1:1.2 ratio Mad1CTD dimer to Cdc20N
Method: (§2) Size-exclusion chromatography coupled with multi-angle static light scattering (SEC-MALS), was performed using an Agilent 1200 series LC system with an online Dawn Helios ii system (Wyatt) equipped with a QELS + module (Wyatt) and an Optilab rEX differential refractive index detector (Wyatt). About 100 μl purified protein at ~3.0 mg/ml was auto-injected onto Superdex 75 or a Superdex 200 Increase 10/300 GL column (GE Healthcare) and run at 0.5 ml/min. The molecular masses were analysed with ASTRA 7.3.0.11 (Wyatt). Data were plotted using Prism 8.4.3 (GraphPad Software, Inc). Purified Cdc20^N and Cdc20^N mutants were incubated with Mad1^CTD wild-type or mutants at a 1:1.2 ratio of Mad1^CTD dimer to Cdc20^N.

[8] = tested on: Mad1CTD R617E/K619D mutant; experiment: SEC-MALS, Cdc20N with Mad1CTD R617E/K619D; assay type: binding, human; details: 1:1.2 ratio Mad1CTD dimer to Cdc20N
Method: as §2

Bub1CD1 [9] = experiment: Binding of Mad1CTD mutants to Bub1CD1; details: fluorescence anisotropy therefore not usable for this mutant
Method: as §1

Bub1CD1 [10] = details: cited from earlier work
Description: (§3) In this predicted model, the Cdc20^N α1 helix lies diagonally across the Mad1^CTD coiled-coil with its N-terminus close to the Mad1 RLK motif of one monomer, and the C-terminus contacting the head domain β-sheet of the adjacent monomer, in a manner that strikingly mimics the Bub1^CD1:Mad1^CTD interaction (Fig. 4d). Similar to Bub1^CD1, the interaction of Cdc20 α1 with Mad1^CTD would largely be driven by hydrophobic interactions (Fig. 4e). This model predicts that Gln3 and Glu7, and Asp9 of Cdc20 α1 interact with Arg617 and Lys619, respectively of the Mad1^CTD RLK motif (Fig. 4d). This is consi ...

[11] = tested on: spindle assembly checkpoint; details: cited from earlier work
Description: as §3

Bub1 CD1 (from UniProt O43683)
Kd (Mad1 CTD (Homo sapiens)): 2.7 µM

CC[C@H](C)[C@H](NC(=O)[C@H](Cc1ccccc1)NC(=O)CNC(=O)[C@H](CC(C)C)NC(=O)[C@H](C)NC(=O)[C@H](CCC(=O)O)NC(=O)[C@H](CCCCN)NC(=O)[C@@H](NC(=O)[C@H](Cc1c[nH]cn1)NC(=O)[C@@H](NC(=O)[C@@H](NC(=O)[C@@H]1CCCN1C(=O)[C@H](COP(=O)(O)O)NC(=O)[C@@H]1CCCN1C(=O)[C@H](CCC(N)=O)NC(=O)[C@@H](NC(=O)[C@H](CCCCN)NC(=O)[C@H](Cc1c[nH]c2ccccc12)NC(=O)[C@@H](N)CSC1CC(=O)N(CCCCCNC(=O)c2ccc(-c3c4ccc(=N)c(S(=O)(=O)O)c-4oc4c(S(=O)(=O)O)c(N)ccc34)c(C(=O)O)c2)C1=O)C(C)C)[C@@H](C)OP(=O)(O)O)C(C)C)[C@@H](C)O)C(=O)N[C@@H](CCSC)C(=O)N[C@@H](CC(N)=O)C(=O)N[C@@H](CCSC)C(=O)N[C@@H](Cc1ccccc1)C(=O)N[C@@H](CCC(N)=O)C(=O)N[C@@H](C)C(=O)N1CCC[C@H]1C(=O)N[C@H](C(=O)N[C@@H](CO)C(=O)O)[C@@H](C)O (stereo partly drawn) [AF488-Bub1^CD1] (H-C(X1)WKVQP[pS]P[pT]VHTKEALGFIMNMFQAPTS-OH; N-terminus and C-terminus assumed)
cooperativity of Bub1CD1 and Cdc20N binding to pMad1CTD (pMad1CTD:Cdc20N complex): unlikely to be cooperative | cooperativity of Bub1CD1 and Cdc20N binding to pMad1CTD (pMad1CTD:Cdc20N complex; listed as AF488-Bub1CD1): no cooperativity

B1: Cdc20^N (N-terminal truncation of Cdc20, residues 1-73) (domain or fragment, human, UniProt Q12834 1-73, looked up)
chain: MAQFAFESDLHSLLQLDAPIPNAPPARWQRKAKEAAGPAPSPMRAANRSHSAGRTPGRTPGKSSSKVQTTPSK
notes: human Cdc20, residues 1-73; also called Cdc20^1–73; wild-type Cdc20^N; source: E. coli Rosetta 2 (DE3), purified (TALON, TEV cleavage, HisTrap, Resource S, Superdex 75); not shown: His6, N-terminal, cleaved; MBP, N-terminal, cleaved
stoichiometry N (Cdc20^N per pMad1^CTD homodimer) [1]: 1 | stoichiometry N (Cdc20^N per pMad1^CTD dimer) [2]: 1 | Kd [3]: 28.1 µM | Kd [4]: 4.8 µM

B2: Mad1^CTD phosphorylated at Thr716 (pMad1^CTD) (domain or fragment, UniProt Q9Y6D9 597-718, looked up)
chain: SSKEVAELKKQVESAELKNQRLKEVFQTKIQEFRKACYTLTGYQIDITTENQYRLTSLYAEHPGDCLIFKATSPSGSKMQLLETEFSHTVGELIEVHLRRQDSIPAFLSSLTLELFSRQTVA
modifications: phosphothreonine at 716 (pThr716)
notes: Mad1 C-terminal domain (Mad1^CTD), residues 597-718; Homodimer; A few peptides phosphorylated at Thr644 were also found; one phosphate per monomer by intact mass; also called Mad1^CTD pT716; Mad1^CTD pThr716
stoichiometry N [5]: 2

B3: Cdc20^MIM peptide (peptide)
peptide: NLNGFDVEEAKILRLSGKPQNAPEGYQNRLKVLY
notes: source: synthetic peptide (Designer Bioscience, UK)
binding result [6]: binds

B4: Cdc20^N E7R/D9K: Cdc20N E7R/D9K mutant (protein)
chain: MAQFAFRSKLHSLLQLDAPIPNAPPARWQRKAKEAAGPAPSPMRAANRSHSAGRTPGRTPGKSSSKVQTTPSK
modifications: left off: His6, N-terminal, state not stated | MBP, N-terminal, state not stated
notes: Cdc20N E7R/D9K mutant
interaction with pMad1CTD by fluorescence anisotropy [7]: could no longer be observed | binding by SEC-MALS (pMad1CTD (Mad1CTD pT716)): could no longer be observed | binding by SEC-MALS [8]: did not show an interaction

B5: Mad1^CTD R617E/K619D: Mad1CTD double mutant of the RLK motif (protein)
chain: SSKEVAELKKQVESAELKNQELDEVFQTKIQEFRKACYTLTGYQIDITTENQYRLTSLYAEHPGDCLIFKATSPSGSKMQLLETEFSHTVGELIEVHLRRQDSIPAFLSSLTLELFSRQTVA
Bub1CD1 binding of Mad1CTD mutant (Bub1CD1 [9]): disrupted the binding of Bub1^CD1

B6: Mad1^CTD K619A: Mad1CTD K619A mutant, refs 21, 24 (protein, UniProt Q9Y6D9 597-718, looked up, variant K619A)
chain: SSKEVAELKKQVESAELKNQRLAEVFQTKIQEFRKACYTLTGYQIDITTENQYRLTSLYAEHPGDCLIFKATSPSGSKMQLLETEFSHTVGELIEVHLRRQDSIPAFLSSLTLELFSRQTVA
Bub1CD1 binding of Mad1CTD mutant (Bub1CD1 [10]): did not disrupt Bub1^CD1 binding significantly | checkpoint function [11]: disrupted the checkpoint
